# Data: paper doi:10.1101/2022.12.08.519103 (bioRxiv, 2022)
# Square brackets hold non-standard residues; d marks the D form. Ends that are not written are not given here. pS = N[C@@H](COP(=O)(O)O)C(=O)O
# T1: AviTag-His6-MBP-TEVsite-14-3-3γ (human, UniProt P61981 1-247)
# T1 sequence (looked up): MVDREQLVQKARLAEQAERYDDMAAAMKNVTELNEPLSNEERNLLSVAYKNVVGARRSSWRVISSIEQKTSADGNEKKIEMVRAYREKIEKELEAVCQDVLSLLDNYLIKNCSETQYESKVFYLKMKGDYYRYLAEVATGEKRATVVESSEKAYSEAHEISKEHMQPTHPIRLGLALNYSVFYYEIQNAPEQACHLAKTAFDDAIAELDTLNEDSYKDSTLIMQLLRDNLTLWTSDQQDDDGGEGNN
# T2: AviTag-His6-MBP-TEVsite-14-3-3ε (human, UniProt P62258 1-255)
# T2 sequence (looked up): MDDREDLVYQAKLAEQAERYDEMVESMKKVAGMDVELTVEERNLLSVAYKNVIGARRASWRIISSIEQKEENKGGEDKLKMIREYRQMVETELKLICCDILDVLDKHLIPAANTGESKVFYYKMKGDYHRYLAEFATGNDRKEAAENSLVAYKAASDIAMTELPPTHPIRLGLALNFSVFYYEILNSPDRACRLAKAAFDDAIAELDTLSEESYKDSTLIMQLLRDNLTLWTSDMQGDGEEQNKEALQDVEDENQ
# T3: AviTag-His6-MBP-TEVsite-14-3-3σ (human, UniProt P31947 1-248)
# T3 sequence (looked up): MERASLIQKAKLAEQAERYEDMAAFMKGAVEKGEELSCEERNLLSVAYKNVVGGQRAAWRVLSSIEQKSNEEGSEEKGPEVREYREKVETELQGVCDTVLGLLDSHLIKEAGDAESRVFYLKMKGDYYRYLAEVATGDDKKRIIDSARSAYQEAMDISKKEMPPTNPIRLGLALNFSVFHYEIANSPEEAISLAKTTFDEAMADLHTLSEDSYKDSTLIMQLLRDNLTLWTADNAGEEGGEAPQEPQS
# Key:
# Experiment in all cases: Holdup Multiplex
# [1] = target: T1, AviTag-His6-MBP-TEVsite-14-3-3γ
# [2] = target: T2, AviTag-His6-MBP-TEVsite-14-3-3ε
# [3] = target: T3, AviTag-His6-MBP-TEVsite-14-3-3σ
binder,measurement,setting,value
"QRISQ[pS]APVK (peptide, UniProt P46937 271-280, looked up, also: phosphoserine at 276 (S4 or S6)) [YAP1 pSer276 phosphopeptide]",Kd,[1],0.7 µM
"GARPV[pS]VAGS (peptide, UniProt Q9Y4H2 379-388, looked up, also: phosphoserine at 384 (S6 or S10)) [IRS2 pSer384 phosphopeptide]",Kd,[2],~900 µM
"LRRPH[pS]VIGG (peptide, UniProt Q00537 70-79, looked up) [phosphopeptide centered on pSer75 from CDK17]",Kd ratio between γ and σ,[3],60 fold
